Source: patent US20130302399A1 (ALDERBIO, published 2013)

Target: T1, human Proprotein Convertase Subtilisin-like/Kexin type 9 (human, UniProt Q8NBP7 31-692, limits assumed)
T1 construct: Biotinylated in the ELISAs; unlabelled analyte in BLI and SPR; also called human PCSK9; PCSK9
Assay: SPR (ProteOn XPR36), biotinylated antibody on neutravidin chip, human PCSK9 as analyte, 1:1 fit, mean of 4 densities
Experimental: Binding affinities of monoclonal antibodies for PCSK9 were estimated using Surface Plasmon Resonance (SPR) on the ProteOn XPR36 (Bio-Rad). Biotinylated antibody was immobilized at progressively increasing densities to the surface of Neutravidin (NLC) Chips. A dilution series of human PCSK9 prepared in 1×HBS-EP+Buffer (10 mM Hepes; 150 mM NaCl; 3 mM EDTA, 0.05% Polysorbate 20; pH 7.6 at 25° C.) purchased from Thermo Scientific and supplemented with 0.2 mg/mL Bovine Serum Albumin (BSA) from Jackson ImmunoResearch and 0.005% sodium azide from VWR was used to query the antibodies. At our chosen concentrations of antigen (˜0.08 μg/mL-6.7 μg/mL) association times of 4 minutes and dissociation times of 30-120 minutes were used with the ProteOn Manager Software (v3.1.0.6, Bio-Rad) to group and fit data using a 1:1 Langmuir binding model. Surfaces were regenerated between analyte queries and after binding antibody to the surface using 10 mM Glycine pH 2.0. Data across 4 different densities were averaged and a single KD and standard propagation of error calculated for each antibody.

T1 sequence (Q8NBP7 31-692 limits assumed): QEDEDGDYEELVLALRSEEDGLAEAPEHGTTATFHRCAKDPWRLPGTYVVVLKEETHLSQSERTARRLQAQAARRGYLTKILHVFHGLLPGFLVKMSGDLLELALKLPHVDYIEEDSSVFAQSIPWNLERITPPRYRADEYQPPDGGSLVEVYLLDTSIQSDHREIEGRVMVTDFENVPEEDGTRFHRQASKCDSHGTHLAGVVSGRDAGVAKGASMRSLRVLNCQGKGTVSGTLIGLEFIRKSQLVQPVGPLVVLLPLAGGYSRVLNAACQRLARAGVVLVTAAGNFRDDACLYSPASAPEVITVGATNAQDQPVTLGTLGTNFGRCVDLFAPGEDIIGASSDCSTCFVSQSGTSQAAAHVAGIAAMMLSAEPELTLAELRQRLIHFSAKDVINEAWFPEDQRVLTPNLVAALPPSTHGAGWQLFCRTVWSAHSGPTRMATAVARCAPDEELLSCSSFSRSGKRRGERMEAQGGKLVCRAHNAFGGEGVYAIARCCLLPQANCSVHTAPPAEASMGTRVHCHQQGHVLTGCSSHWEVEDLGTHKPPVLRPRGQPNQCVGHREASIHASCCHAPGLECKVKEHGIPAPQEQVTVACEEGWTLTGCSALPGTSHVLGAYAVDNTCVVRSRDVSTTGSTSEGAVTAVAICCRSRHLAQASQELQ

| Kd [nM] | koff [s⁻¹] | kon [M⁻¹ s⁻¹] | Binder |
| --- | --- | --- | --- |
| 0.04 | 3.71e-05 | 928000 | Ab23 (antibody, human IgG1, kappa, N297A, V domains shown, also called antibody Ab23) VH: QSLEESGGDLVKPGASLTLTCKASGFSFSSGYYMCWVRQAPGKGLEWIACIYAGSGGSTFFANWAKGRFTISKTSSTTVTLQMTSLTAADTATYFCARDGGYAGYGYAFFNLWGPGTLVTVSS VL: DVVMTQTPASVSEPVGGTVTIKCQASERIYSGLAWYQQKPGQPPKLLIYGASTLASGVPSRFKGSGSGTDFTLTISDLECDDAAIYYCQCTYYGSSYPNVFGGGTEVVVKR |
| 0.09 | 6.16e-05 | 684000 | Ab24 (antibody, human IgG1, kappa, N297A, V domains shown, also called antibody Ab24) VH: QSLEESGGDLVKPGASLTLTCKASGFSFSSGYYMCWVRQAPGKGLEWIACIYAGSGGSTFFANWAKGRFTISKTSSTTVTLQMTSLTAADTATYFCARDGGYAGYGYAFFNLWGPGTLVTVSS VL: DVVMTQTPASVSEPVGGTVTIKCQASERIYSGLAWYQQKPGQPPKLLIYGASTLASGVPSRFKGSGSGTDFTLTISDLECDDAAIYYCQATYYGSSYPNVFGGGTEVVVKR |
| 0.49 | 0.000259 | 529000 | Ab22 (antibody, human IgG1, kappa, N297A, V domains shown, also called antibody Ab22) VH: EVQLVESGGGLVQPGGSLRLSCAASGFSLSSYAMNWVRQAPGKGLEWIGAIRSSGATFFASSVNGRFTISRDNSKNTVYLQMNSLRAEDTAVYYCARDTNDGWYINRLDLWGQGTLVTVSS VL: AVLTQSPSTLSASVGDRVTITCQSSKSVYSNYLSWFQQKPGKAPKFLIYKASTLASGVPSRFSGSGSGTEFTLTISSLQPDDFATYYCAGGDTNIADNAFGGGTKVEIKR |
| 0.61 | 0.000354 | 580000 | Ab21 (antibody, human IgG1, kappa, N297A, V domains shown, also called antibody Ab21) VH: QSVEESGGRLVTPGTPLTLTCTVSGFSLSSYAMNWVRQAPGKGLEWIGAIRSSGATFFASWVNGRFTISKTSTTVDLKITSPTPEDTATYFCARDTNDGWYINRLDLWGPGTLVTVSS VL: AAVLTQTPSPVSAAVGGTVSISCQSSKSVYSNYLSWFQQKPGQPPKFLIYKASTLASGVPSRFKGSGSGTQFTLTISDVQCDDAATYYCAGGDTNISDNAFGGGTEVVVKR |
